According to publication PMC4168064, “Cosuppression of the chloroplast localized molecular chaperone HSP90.5 impairs plant development and chloroplast biogenesis in Arabidopsis” (BMC Research Notes, 2014):

B1: C-terminally FLAG-tagged mature HSP90.5 (HSP90.5 62-780 FLAG), N-terminally His6-tagged (domain or fragment, Arabidopsis thaliana, UniProt Q9SIF2 62-780, looked up)
chain: DAAVAEKETTEEGSGEKFEYQAEVSRLLDLIVHSLYSHKEVFLRELVSNASDALDKLRFLSVTEPSLLGDGGDLEIRIKPDPDNGTITITDTGIGMTKEELIDCLGTIAQSGTSKFLKALKENKDLGADNGLIGQFGVGFYSAFLVAEKVVVSTKSPKSDKQYVWESVADSSSYLIREETDPDNILRRGTQITLYLREDDKYEFAESTRIKNLVKNYSQFVGFPIYTWQEKSRTIEVEEDEPVKEGEEGEPKKKKTTKTEKYWDWELANETKPLWMRNSKEVEKGEYNEFYKKAFNEFLDPLAHTHFTTEGEVEFRSILYIPGMGPLNNEDVTNPKTKNIRLYVKRVFISDDFDGELFPRYLSFVKGVVDSDDLPLNVSREILQESRIVRIMRKRLIRKTFDMIQEISESENKEDYKKFWENFGRFLKLGCIEDTGNHKRITPLLRFFSSKNEEELTSLDDYIENMGENQKAIYYLATDSLKSAKSAPFLEKLIQKDIEVLYLVEPIDEVAIQNLQTYKEKKFVDISKEDLELGDEDEVKDREAKQEFNLLCDWIKQQLGDKVAKVQVSNRLSSSPCVLVSGKFGWSANMERLMKAQALGDTSSLEFMRGRRILEINPDHPIIKDLNAACKNAPESTEATRVVDLLYDTAIISSGFTPDSPAELGNKIYEMMAMAVGGRWGRVEEEEESSTVNEGDDKSGETEVVEPSEVRAESDPWQD
notes: Arabidopsis thaliana chloroplast HSP90.5, predicted mature form, residues 62-780, amplified from pGWB402Ω-HSP90.5FLAG and cloned into pProEXHTb; also called HSP90.5FLAG; FLAG-tagged HSP90.5; source: E. coli, purified (Ni-NTA); not shown: FLAG, C-terminal, kept
B2: mature HSP90.5 (HSP90.5 62-780), N-terminally His6-tagged (domain or fragment, Arabidopsis thaliana, UniProt Q9SIF2 62-780, looked up)
chain: B1 chain
notes: Arabidopsis thaliana chloroplast HSP90.5, predicted mature form, residues D62-D780, cloned from an HSP90.5 cDNA into the p11 vector; also called wild type HSP90.5; AtHSP90.5; source: E. coli, purified (Ni-NTA)

Biological target: the molecule itself
Test: SEC; Superdex 200 10/30; running buffer 25 mM Tris-HCl pH 8.0, 100 mM NaCl, 10% glycerol; 600 ug of HSP90.5 62-780 or 200 ug of FLAG-tagged HSP90.5 62-780 loaded; fractions analysed by SDS-PAGE

Protein | stoichiometry N
B1 | 2
B2 | 2
